These sequences were tested on Escherichia coli TOP10 (assay: shrunken log2 fold change of peptide-encoding DNA abundance (4.5 h post-induction vs induction); higher = less antimicrobial activity (less host growth inhibition)). Conditions: time post-induction: 4.5 h; library: site-saturation at positions 5, 18, 19, 20.
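Note: peptides expressed intracellularly from a pBAD plasmid library in pooled LB shake-flask culture, induced with 0.3% L-arabinose, DNA abundance read by NGS, three biological replicates, DESeq2 with apeglm shrinkage.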

Sequence | shrunken log2 fold change
RRIRKRPPRLPRPRPRPIGQPRP | 0.0684
RRIRRRPPRLPRPRPRPNNEPRP | -0.246
RRIRVRPPRLPRPRPRPYVNPRP | 0.0651
RRIRPRPPRLPRPRPRPHMHPRP | -0.438
RRIRYRPPRLPRPRPRPNNQPRP | -1.05
RRIRHRPPRLPRPRPRPTMDPRP | -0.179
RRIRVRPPRLPRPRPRPTQWPRP | 0.12
RRIRSRPPRLPRPRPRPSNSPRP | -0.145
RRIRPRPPRLPRPRPRPCMHPRP | -0.297
RRIRSRPPRLPRPRPRPLWKPRP | 0.197
RRIRHRPPRLPRPRPRPYSVPRP | -0.481
RRIRGRPPRLPRPRPRPYESPRP | 0.133
RRIRVRPPRLPRPRPRPFKGPRP | -0.0313
RRIRHRPPRLPRPRPRPPWTPRP | -0.131
RRIRSRPPRLPRPRPRPIAEPRP | -0.0272
RRIRDRPPRLPRPRPRPCMGPRP | -0.0733
RRIRVRPPRLPRPRPRPWHNPRP | -0.49
RRIRLRPPRLPRPRPRPWYGPRP | -0.53
RRIRHRPPRLPRPRPRPFTSPRP | -0.197
RRIRIRPPRLPRPRPRPSDCPRP | -0.497
RRIRIRPPRLPRPRPRPDNWPRP | -0.128
RRIRTRPPRLPRPRPRPISDPRP | -0.0355
RRIRLRPPRLPRPRPRPCIGPRP | -0.147
RRIRVRPPRLPRPRPRPWATPRP | -0.122
RRIRKRPPRLPRPRPRPDMTPRP | 1.34

Sequence | shrunken log2 fold change
RRIRERPPRLPRPRPRPILYPRP | -0.615
RRIRTRPPRLPRPRPRPNINPRP | -0.812
RRIRRRPPRLPRPRPRPEDSPRP | 0.0554
RRIRDRPPRLPRPRPRPTMEPRP | 0.335
RRIRKRPPRLPRPRPRPDMRPRP | 0.0676
RRIRKRPPRLPRPRPRPGYEPRP | -0.0888
RRIRRRPPRLPRPRPRPPDKPRP | 0.303
RRIRSRPPRLPRPRPRPGSAPRP | 0.231
RRIRRRPPRLPRPRPRPRFRPRP | 0.455
RRIRERPPRLPRPRPRPDIGPRP | -0.0541
RRIRLRPPRLPRPRPRPQIVPRP | -0.0529
RRIRDRPPRLPRPRPRPYTFPRP | -0.0443
RRIRRRPPRLPRPRPRPNHRPRP | -0.0368
RRIRMRPPRLPRPRPRPIVNPRP | -0.0202
RRIRWRPPRLPRPRPRPAKVPRP | -0.177
RRIRDRPPRLPRPRPRPKDGPRP | -0.0429
RRIRKRPPRLPRPRPRPISIPRP | 0.0294
RRIRFRPPRLPRPRPRPHWAPRP | -0.0371
RRIRSRPPRLPRPRPRPWIFPRP | -0.14
RRIRSRPPRLPRPRPRPCLSPRP | -0.000866
RRIRRRPPRLPRPRPRPDKNPRP | 0.0344
RRIRGRPPRLPRPRPRPKKLPRP | 0.39
RRIRSRPPRLPRPRPRPNAYPRP | -0.696
RRIRPRPPRLPRPRPRPDQPPRP | -0.0572
RRIRWRPPRLPRPRPRPFGEPRP | 0.439

Sequence | shrunken log2 fold change
RRIRIRPPRLPRPRPRPLGVPRP | -0.0767
RRIRPRPPRLPRPRPRPVDIPRP | -0.288
RRIRSRPPRLPRPRPRPPIEPRP | 0.314
RRIRDRPPRLPRPRPRPHRYPRP | -0.21
RRIRNRPPRLPRPRPRPCCVPRP | -0.667
RRIRQRPPRLPRPRPRPHQHPRP | -0.309
RRIRARPPRLPRPRPRPSKSPRP | 0.0305
RRIRCRPPRLPRPRPRPNCWPRP | 0.078
RRIRPRPPRLPRPRPRPGFTPRP | -0.139
RRIRVRPPRLPRPRPRPYADPRP | -0.543
RRIRKRPPRLPRPRPRPILYPRP | -0.505
RRIRYRPPRLPRPRPRPKGAPRP | 0.194
RRIRVRPPRLPRPRPRPALWPRP | 0.57
RRIRPRPPRLPRPRPRPLLMPRP | -0.185
RRIRVRPPRLPRPRPRPDYEPRP | 0.0678
RRIRFRPPRLPRPRPRPLEIPRP | -0.0193
RRIRMRPPRLPRPRPRPAFQPRP | 0.0845
RRIRKRPPRLPRPRPRPMRQPRP | 0.384
RRIRFRPPRLPRPRPRPKDAPRP | 0.141
RRIRGRPPRLPRPRPRPMRQPRP | 0.453
RRIRWRPPRLPRPRPRPILAPRP | 0.364
RRIRWRPPRLPRPRPRPGFQPRP | 0.127
RRIRMRPPRLPRPRPRPMKVPRP | 0.0398
RRIRSRPPRLPRPRPRPTHFPRP | -0.0655
RRIRKRPPRLPRPRPRPPFWPRP | 1.2

Source: the supplement of paper PMC9112550, “Optimization of the antimicrobial peptide Bac7 by deep mutational scanning” (BMC Biology, 2022)
